Biological target: T1, Bacteriorhodopsin, P02945
T1 chain: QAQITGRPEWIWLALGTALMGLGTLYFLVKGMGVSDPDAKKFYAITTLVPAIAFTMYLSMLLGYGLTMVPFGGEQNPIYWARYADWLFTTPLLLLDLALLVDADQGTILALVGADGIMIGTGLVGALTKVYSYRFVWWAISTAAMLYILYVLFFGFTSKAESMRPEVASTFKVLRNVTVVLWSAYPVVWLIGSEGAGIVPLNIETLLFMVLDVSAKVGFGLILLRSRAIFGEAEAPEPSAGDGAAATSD
Experiment: SEC
Conditions: remark: other sources report otherwise

B1: Bacteriorhodopsin, P02945 14-262 (natural protein)
chain: QAQITGRPEWIWLALGTALMGLGTLYFLVKGMGVSDPDAKKFYAITTLVPAIAFTMYLSMLLGYGLTMVPFGGEQNPIYWARYADWLFTTPLLLLDLALLVDADQGTILALVGADGIMIGTGLVGALTKVYSYRFVWWAISTAAMLYILYVLFFGFTSKAESMRPEVASTFKVLRNVTVVLWSAYPVVWLIGSEGAGIVPLNIETLLFMVLDVSAKVGFGLILLRSRAIFGEAEAPEPSAGDGAAATSD
- stoichiometry N: 3 per nanodisc
